The target in one experiment is T1, CAPN5-PC p.G267S (Homo sapiens, UniProt O15484, G267S).
T1 construct: active recombinant CAPN5 protease core (CAPN5-PC)
T1 sequence (O15484 26-343 G267S limits assumed): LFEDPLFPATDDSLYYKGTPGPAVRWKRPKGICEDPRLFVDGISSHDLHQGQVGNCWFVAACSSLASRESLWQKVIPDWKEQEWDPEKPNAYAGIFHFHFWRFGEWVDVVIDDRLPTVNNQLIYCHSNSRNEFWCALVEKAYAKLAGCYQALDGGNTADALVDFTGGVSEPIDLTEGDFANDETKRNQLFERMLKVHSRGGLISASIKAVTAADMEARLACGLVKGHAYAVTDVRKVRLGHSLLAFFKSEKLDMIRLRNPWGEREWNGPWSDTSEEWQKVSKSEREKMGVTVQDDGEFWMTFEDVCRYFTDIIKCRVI
Briefly: In vitro CAPN5 activity assay with consensus FRET peptides. It is filed as biochemical. The note with it: 1.6 μM CAPN5-PC p.G267S, 10 mM Ca^2+. How it is done:
Consensus FRET peptides were synthesized based on the highest scoring amino acids at each position of the PSSM (Peptides P4′A, P4′P, P2R, and P3GP1′ V) and were tested in our in vitro CAPN5 activity assay (FIG. 9B). These substrates were hydrolyzed by 1.6 μM CAPN5-PC p.G267S in the presence of 10 mM Ca^2+. […] The catalytic efficiency (kcat/Km) of this peptide was higher than the observed kcat/Km for our previously determined PR1476 peptide (11 vs. 7 M^−1s^−1; FIG. 9D).

A further experiment deals with CAPN5-R243L (Homo sapiens, UniProt O15484, R243L). The experiment is described as follows: FRET-based CAPN5 inhibition assay, R243L mutant protease. The experiment is classed as biochemical. On the procedure: (§1) We have optimized the CAPN5 assay and developed a high throughput CAPN5 inhibition assay which utilizes 384-well plates and uses less than 50 nM protease for each experimental condition. Calpain proteolytic activity was measured by hydrolysis of DABCYL-TPLKSPPPSPR (SEQ ID NO:3)-EDANS (Calpain Substrate III; Calbiochem). Briefly, 50 nM of purified CAPN5-G267S protease core domain was added to a reaction buffer containing 50 mM imidazole (pH 7.0), 200 mM NaCl, 20 mM CaCl2, 1 mM EDTA, 8 mM Li-acetate, 0.19 mM Facade®-EPC, 1 mM TCEP, 0.8% (v/v) glycerol, 4% (v/v) 1,3-butanediol. 8 μL of protease was added to each well of the 384-well plates. Varying concentrations of […] (final concentration of 0.1 μM to 100 μM; 4 μL in each well) were added and the reaction was incubated at 37° C. for 30 minutes. After incubation, 8 μL of Calpain Substrate III was added to each well (final concentration of 40 μM; total reaction volume was 20 μL) and EDANS signal was measured on a fluorimetric plate reader (Tecan Spark, Mannedorf Switzerland). All experiments were performed in triplicate. Reaction rates were fit to the Hill equation to determine the IC50 values in GraphPad Prism 8. This assay condition is compatible with CAPN1 and CAPN5 wild-type. We have chosen CAPN5-G267S for initial inhibitor screening, since it has higher activity than CAPN5 wild-type and the mutation is located at the G2-loop which is away from the active site that is likely to have identical specificity to CAPN5 wild-type specificity.
(§2) We have identified the PDGFB protein as a substrate. We discovered a likely proteolytic site for CAPN5 on PDGFB, and sought to use this information to inhibit proteolysis assuming the alteration of a robust endogenous substrate of CAPN5 would create an opportunity for more specific inhibition of CAPN5. We generated two artificial peptides by methylating only P1-Lysine (1-Methylated; FIG. 7A) or both P1-Lysine and P1′-Lysine (2-Methylated; FIG. 7B) expecting the methylation would make the PDGFB peptide motif resistant to CAPN5 proteolysis. We tested their inhibitory potential against CAPN5-G267S using our high throughput FRET-based CAPN5 inhibition assay. […] We further tested them with the CAPN5 wild-type and CAPN5-R243L mutant proteases. Both methylated PDGFB peptides inhibited CAPN5-R243L activity at the nanomolar IC50 (FIG. 7E).

The target in the next experiment is CAPN5 wild-type (Homo sapiens, UniProt O15484). Briefly: FRET-based CAPN5 inhibition assay, wild-type protease. The experiment is classed as biochemical. The following applies: for IC50: CAPN5 WT; for inhibition of wildtype CAPN5: CAPN5 wild-type. On the procedure:
as §1, §2

The target of experiment [1] is T2, Calpain-5 protease core domain (CAPN5-PC) (Homo sapiens, UniProt O15484).
T2 sequence (O15484 26-343 limits assumed): T1 sequence (O15484 26-343 G267S limits assumed) with S242G
Briefly: CAPN5 functional assay (FRET peptide substrate kinetics).
Procedure: The assay was performed using a Greiner 96-well Black Small Volume plate according to the following protocol for measuring enzymatic activity of the calpain-5 protease: • Dilute CAPN5 in activity buffer to make a master mix at 3 concentrations. • Add 50 μL of substrate diluted with activity buffer (7 working concentrations at 2×). • Add 50 μL of CAPN5 to each well with multi-channel pipette. • Measure fluorescence activity (336/490 nm) on Tecan Spark at 37° C. for 2 hours with recordings taken every 2 minutes (with lid). • Convert RFU values to nM product using standard curve of EDANS concentrations (2 nM to 5 μM). • Calculate reaction velocity (slope) at each substrate concentration using linear regression. • Calculate Michaelis-Menten kinetic parameters in GraphPad Prism 8.

The target in the next experiment is Human CAPN5-PC (Homo sapiens, UniProt O15484). Briefly: Human CAPN5-PC | Ki (µM). How it is done:
Table printed on a drawing sheet, FIG. 1C
Head of the field: Human CAPN5-PC | Ki (µM)
The patent's description of the figure: FIGS. 1A-1C show kinetic analysis of human CAPN5 and rat CAPN1 with the peptide substrates, RQNRGGGCINH (SEQ ID NO:1, FIG. 1A) and PLFAER (SEQ ID NO:2, FIG. 1B).
FIGS. 1A-1B show kinetic analysis of human CAPN5 and rat CAPN1 with the peptide substrates, RQNRGGGCINH (SEQ ID NO:1, FIG. 1A) and PLFAER (SEQ ID NO:2, FIG. 1B) using this protocol. […] A 10 mM PR1476 master stock was prepared in 100% DMSO. 3.69 mM PR1478 master stock was prepared in 50% DMSO/50% activity buffer.
First copying reader's note: Enzyme kinetic parameters of peptide substrates with calpain protease cores; the ± error stands inside the cells.
Where the first naming reader finds the target: head: Human CAPN5-PC

Residue numbers refer to the chain shown, from its start. Where two headings read alike, the source gives them in different places. No end group written: not given here.

Sequence of CAPN5-R243L (O15484 whole entry R243L, the tested form may be a part): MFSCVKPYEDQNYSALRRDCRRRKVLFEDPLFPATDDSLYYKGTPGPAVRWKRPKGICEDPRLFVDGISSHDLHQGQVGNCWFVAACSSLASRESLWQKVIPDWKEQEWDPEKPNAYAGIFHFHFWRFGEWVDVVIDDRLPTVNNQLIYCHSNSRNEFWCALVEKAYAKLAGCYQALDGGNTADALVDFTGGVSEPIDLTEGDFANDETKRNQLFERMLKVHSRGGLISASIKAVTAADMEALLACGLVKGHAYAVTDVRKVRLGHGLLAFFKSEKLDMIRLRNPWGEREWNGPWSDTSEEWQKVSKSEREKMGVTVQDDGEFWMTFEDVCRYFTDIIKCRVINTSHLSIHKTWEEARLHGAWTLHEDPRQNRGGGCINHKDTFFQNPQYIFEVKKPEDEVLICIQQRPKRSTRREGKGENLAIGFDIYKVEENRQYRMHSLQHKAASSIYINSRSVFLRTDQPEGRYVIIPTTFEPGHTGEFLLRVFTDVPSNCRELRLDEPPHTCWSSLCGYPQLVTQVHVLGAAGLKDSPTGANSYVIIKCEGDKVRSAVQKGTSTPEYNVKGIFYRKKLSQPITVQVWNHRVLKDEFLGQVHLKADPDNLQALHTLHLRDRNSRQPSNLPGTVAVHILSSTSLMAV
Sequence of CAPN5 wild-type (O15484 whole entry): as the sequence (O15484 whole entry R243L, the tested form may be a part) above, with L243R counted along it
Sequence of Human CAPN5-PC (O15484 26-343): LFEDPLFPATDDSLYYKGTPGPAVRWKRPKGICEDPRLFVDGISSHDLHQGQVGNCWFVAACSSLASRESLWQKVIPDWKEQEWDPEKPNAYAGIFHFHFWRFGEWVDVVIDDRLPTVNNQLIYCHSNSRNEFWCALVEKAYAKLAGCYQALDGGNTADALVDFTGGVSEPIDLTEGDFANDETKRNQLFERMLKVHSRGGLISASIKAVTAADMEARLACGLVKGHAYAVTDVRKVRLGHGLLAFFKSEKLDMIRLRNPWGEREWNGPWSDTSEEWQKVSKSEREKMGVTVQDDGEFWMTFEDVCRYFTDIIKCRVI

Regarding “EVKALEEP (also: FRET labels, places not given here) [P4′P, consensus FRET peptide substrate of calpain-5]”, the “hydrolysis by CAPN5-PC p.G267S” value in the experiment with CAPN5-PC p.G267S was “hydrolyzed”.
For `CCCC[C@@H](C=O)NC(=O)[C@H](CC(C)C)NC(=O)OCc1ccccc1` [Calpeptin], at CAPN5-R243L, the “inhibition of CAPN5-R243L (mutant CAPN5)” value is listed as “did not show any inhibition”. At CAPN5-R243L (listed as calpeptin), the “inhibition of CAPN5-R243L (mutant CAPN5)” value is on record as “not the mutant CAPN5”. Further, at CAPN5 wild-type, the IC50 result is on record as “nanomolar” and the “inhibition of wildtype CAPN5” value is “inhibit the wildtype”.
Turning to “EVKALEEA (also: FRET labels, places not given here) [P4′A, consensus FRET peptide substrate of calpain-5]”, the “hydrolysis by CAPN5-PC p.G267S” value in the experiment with CAPN5-PC p.G267S is “hydrolyzed”.
As to “RQNRGGGCINH (N-terminal Dabcyl, EDANS on glutamate, C-terminal cap; calpain-5 peptide substrate) [PR1476]”, the “activity as substrate with CAPN5” value in experiment [1] (CAPN5 0, 0.16, 0.49, 1.6 μm, peptide 0 μM to 160 μM) is “displays activity in a CAPN5 dose-dependent manner”. The “substrate quality / sensitivity to CAPN5-PC activity” value in experiment [1] (comparison between substrates) is on record as “more sensitive than other generic calpain substrates”.
Consider “RQNRGGGCINH (not fully specified (N-terminus)) [PR1476]”, for which, in the experiment with Human CAPN5-PC, affinity was put at a Ki of 43 ± 14 µM.
“EVRALEEA (also: FRET labels, places not given here) [P2R, consensus FRET peptide substrate of calpain-5]”: in the experiment with CAPN5-PC p.G267S, the “hydrolysis by CAPN5-PC p.G267S” value was “hydrolyzed” and the “substrate turnover (kcat), preference” value is given as “preferred by CAPN5-PC”.
As for `CC(=O)N[C@@H](CC(C)C)C(=O)N[C@@H](CC(C)C)C(=O)N[C@H](C=O)CCCNC(=N)N` [Leupeptin], the entries for the “inhibition of CAPN5-R243L (mutant CAPN5)” value against CAPN5-R243L and on CAPN5-R243L (listed as leupeptin) were “did not show any inhibition” and “not the mutant CAPN5”, respectively. At CAPN5 wild-type, the IC50 result was “nanomolar”. On CAPN5 wild-type, the “inhibition of wildtype CAPN5” value is recorded as “inhibit the wildtype”.
For the compound “EGKAVLEA (also: FRET labels, places not given here) [P3GP1′V, consensus FRET peptide substrate of calpain-5]”, in the experiment with CAPN5-PC p.G267S, the “hydrolysis by CAPN5-PC p.G267S” value is listed as “hydrolyzed”.

(Values after patent publication US12486528B2, “Compositions and methods for measuring and inhibiting calpain-5 activity” (The Board of Trustees of the Leland Stanford Junior …, priority 2019, dated 2025).)
